Assays:
His6-Fur [1] = target: T1, His6-Fur (UniProt Q66DC2 1-148); test: EMSA; 5 mM MgCl2, 50 ng poly(dI-dC); […] (pH not stated); ITC: PBS, 25 C; settings: protein: recombinant; tags: His6; chain copies: 2; label: 5' biotin (BioT6SS-1pF); blunt
His6-Fur [2] = target: T1, His6-Fur; test: competition; […] (pH not stated); ITC: PBS, 25 C; settings: protein: recombinant; tags: His6; chain copies: 2; blunt

B1: BioT6SS1-p (dsDNA)
DNA 1: TATCGCAATAAAAATGCCACTCATGTTTTAATATA
DNA 2: TATATTAAAACATGAGTGGCATTTTTATTGCGATA
binding result (His6-Fur [1]): binds

B2: T6SS1-p (unlabeled) (dsDNA)
DNA 1: TATCGCAATAAAAATGCCACTCATGTTTTAATATA
DNA 2: TATATTAAAACATGAGTGGCATTTTTATTGCGATA
binding result (His6-Fur [2]): binds

Reference: publication PMC10833071
